Measurements reported in paper PMC1525162 (BMC Pharmacology, 2006).
Changes are numbered by the printed parent chain. Entries after “also recorded” stand apart in the source; their conditions may differ. Bridge positions count the residues as written; N and C are the ends. Ends that are not written are not given here. Peptide text beside a SMILES is read from it.

Columns and labels:
[1] = molecular target: wild type CLR-RAMP1 heterodimer (HEK293T-RAMP1 membranes) (Homo sapiens, UniProt O60894+Q16602); assay: Competition radioligand binding, wild type CLR; conditions: compared to Ki of CGRP
Description: A crude cell membrane preparation was prepared as previously described. Briefly, HEK293T-RAMP1 membranes were prepared by scraping and transferring cells to a 50 mL conical tube using cold HBSS followed with two washings by centrifugation at 1000 × g using cold HBSS. The intact cell pellet was resuspended in 10 mL of 0.25 M sucrose containing a protease inhibitor cocktail consisting of 10μg/mL benzamidine, 10μg/mL leupeptin, and 20μg/mL phenylmethysulfonylfluoride. The cells were disrupted by freezing followed by Dounce homogenization of the thawed suspension using 20 strokes from a loose fitting (B) pestle. This mixture was then centrifuged at 1260 × g for 5 min at 4°C. Buffer A (20 mM HEPES, pH 7.5, 1.4 mM EGTA, 12.5 mM MgCl2, 10μg/mL benzamidine, 10μg/mL leupeptin, and 20μg/mL phenylmethysulfonylfluoride) was added to the supernatant and centrifuged again at 30,000 × g for 15 min at 4°C. The resultant pellet was kept, resuspended in buffer A then centrifuged once more at 30,000 × g for 15 min at 4°C. […] Protein concentrations were measured using the method of Bradford.
The radioligand binding protocol used for this study was performed as previously described. […] Amounts of total and non-specific radiolabel bound to cell membranes were calculated from radioactive counts remaining on the glass fiber filters.

[2] = test system: L24A, L34A and L24A,L34A CLR-RAMP1 heterodimers versus wild type; assay: Competition/saturation binding, leucine mutant CLRs compared with wild type; set-up: species or system human; conditions: L34A, L24A,L34A vs wild type CLR
Description: A crude cell membrane preparation was prepared as previously described. Briefly, HEK293T-RAMP1 membranes were prepared by scraping and transferring cells to a 50 mL conical tube using cold HBSS followed with two washings by centrifugation at 1000 × g using cold HBSS. The intact cell pellet was resuspended in 10 mL of 0.25 M sucrose containing a protease inhibitor cocktail consisting of 10μg/mL benzamidine, 10μg/mL leupeptin, and 20μg/mL phenylmethysulfonylfluoride. The cells were disrupted by freezing followed by Dounce homogenization of the thawed suspension using 20 strokes from a loose fitting (B) pestle. This mixture was then centrifuged at 1260 × g for 5 min at 4°C. Buffer A (20 mM HEPES, pH 7.5, 1.4 mM EGTA, 12.5 mM MgCl2, 10μg/mL benzamidine, 10μg/mL leupeptin, and 20μg/mL phenylmethysulfonylfluoride) was added to the supernatant and centrifuged again at 30,000 × g for 15 min at 4°C. The resultant pellet was kept, resuspended in buffer A then centrifuged once more at 30,000 × g for 15 min at 4°C. The final crude membrane pellet was resuspended in buffer A containing 10% glycerol and stored in aliquots at -70°C until used for radioligand binding. Protein concentrations were measured using the method of Bradford.
The radioligand binding protocol used for this study was performed as previously described. […] Binding was stopped by filtering the membranes though Whatman GF/C glass fiber filters, followed by 5 – 5 mL washes with cold buffer B (20 mM HEPES, pH 7.5, 1.4 mM EGTA, 12.5 mM MgCl2) to remove any unbound drug. Amounts of total and non-specific radiolabel bound to cell membranes were calculated from radioactive counts remaining on the glass fiber filters.

[3] = molecular target: wild type CLR-RAMP1 (transiently transfected HEK293T-RAMP1 cells) (Homo sapiens, UniProt O60894+Q16602); assay: cAMP generation, wild type CLR; type: cell-based
[4] = test system: wild type and L24A, L34A, L24A,L34A CLR-RAMP1 (HEK293T-RAMP1 cells); assay: cAMP generation, wild type and leucine mutant CLRs compared
CGRP receptor = conditions: cited from earlier work
From the text: Briefly, this 37 amino acid neuropeptide can be divided into two distinct domains based upon its binding and agonistic properties for the receptor. […] Specifically, loss of the disulfide bridge connecting amino acids 2 and 7 negates all biological activity of the endogenous neuropeptide.

[5] = molecular target: CLR-RAMP1 heterodimer with the L24A CLR mutant (UniProt Q16602); assay: radioligand binding; saturation binding: increasing [125I-Tyr]CGRP(8–37) on crude membranes of transiently transfected HEK293T-RAMP1 cells, 37°C, buffer A (20 mM HEPES pH 7.5, […] EGTA, 12.5 mM MgCl2, protease inhibitors) plus 0.1% BSA, 1 μM CGRP for non-specific binding, filtration on GF/C filters
[6] = molecular target: CLR-RAMP1 heterodimer with the L34A CLR mutant (UniProt Q16602); assay: as above
[7] = molecular target: CLR-RAMP1 heterodimer with the L24A,L34A CLR double mutant (UniProt Q16602); assay: as above
[8] = molecular target: CLR-RAMP1 heterodimer, wild type calcitonin-like receptor (CLR) with receptor-activity-modifying protein-1 (RAMP1) (UniProt Q16602); assay: as above
[9] = molecular target: T1, CLR-RAMP1 heterodimer with the L24A CLR mutant, Q16602
T1 chain 1: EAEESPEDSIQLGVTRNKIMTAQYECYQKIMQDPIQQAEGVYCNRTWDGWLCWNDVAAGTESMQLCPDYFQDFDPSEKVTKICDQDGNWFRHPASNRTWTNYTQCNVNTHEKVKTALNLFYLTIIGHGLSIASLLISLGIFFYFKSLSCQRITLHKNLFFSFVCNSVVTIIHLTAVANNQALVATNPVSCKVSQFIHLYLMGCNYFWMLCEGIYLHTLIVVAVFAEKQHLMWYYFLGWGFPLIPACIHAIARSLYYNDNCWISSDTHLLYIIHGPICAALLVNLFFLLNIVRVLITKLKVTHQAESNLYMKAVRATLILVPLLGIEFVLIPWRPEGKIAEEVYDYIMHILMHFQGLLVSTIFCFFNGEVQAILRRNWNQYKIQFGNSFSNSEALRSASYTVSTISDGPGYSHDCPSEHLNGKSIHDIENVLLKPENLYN
T1 chain 2: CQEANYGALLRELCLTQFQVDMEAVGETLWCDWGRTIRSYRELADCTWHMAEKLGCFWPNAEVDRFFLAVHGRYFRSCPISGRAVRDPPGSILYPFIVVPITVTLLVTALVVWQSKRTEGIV

[10] = molecular target: T2, CLR-RAMP1 heterodimer with the L34A CLR mutant, Q16602
T2 chain 1: T1 chain 1 with A2L, L12A
T2 chain 2: T1 chain 2

[11] = molecular target: T3, CLR-RAMP1 heterodimer, wild type calcitonin-like receptor (CLR) with receptor-activity-modifying protein-1 (RAMP1), Q16602
T3 chain 1: T1 chain 1 with A2L
T3 chain 2: T1 chain 2

[12] = molecular target: T4, CLR-RAMP1 heterodimer with the L24A,L34A CLR double mutant, Q16602
T4 chain 1: T1 chain 1 with L12A
T4 chain 2: T1 chain 2

[13] = molecular target: T1, CLR-RAMP1 heterodimer with the L24A CLR …; assay: radioligand binding; competition: increasing unlabeled peptide against specific [125I-Tyr]CGRP(8–37) binding on crude membranes of transiently transfected HEK293T-RAMP1 cells, same buffer as the saturation binding; Ki from IC50 by the method of Cheng and Prusoff
[14] = molecular target: T2, CLR-RAMP1 heterodimer with the L34A CLR …; assay: as above
[15] = molecular target: T3, CLR-RAMP1 heterodimer, wild type …; assay: as above
[16] = molecular target: T4, CLR-RAMP1 heterodimer with the …; assay: as above

## CC(C)C[C@H](NC(=O)CNC(=O)[C@H](C)NC(=O)[C@H](CC(C)C)NC(=O)[C@H](CCCNC(=N)N)NC(=O)[C@H](Cc1c[nH]cn1)NC(=O)[C@@H](NC(=O)[C@@H](NC(=O)[C@@H]1CSSC[C@H](NC(=O)[C@H](C)N)C(=O)N[C@@H](CC(=O)O)C(=O)N[C@@H]([C@@H](C)O)C(=O)N[C@@H](C)C(=O)N[C@@H]([C@@H](C)O)C(=O)N1)C(C)C)[C@@H](C)O)C(=O)N[C@@H](CC(C)C)C(=O)N[C@@H](CO)C(=O)N[C@@H](CCCNC(=N)N)C(=O)N[C@@H](CO)C(=O)O [CGRP(1–19)] (H-ACDTATCVTHRLAGLLSRS-OH; disulfide 2-7 (inferred); N-terminus assumed)
[1]
  affinity for wild type CLR compared with CGRP: significant loss of CGRP(1–19) affinity
[2]
  affinity at leucine mutants compared with wild type: analogous to values calculated for all leucine CLR mutations
[3]; CGRP(1–36) compared with CGRP, CGRP(1–19) compared with CGRP(1–36) and CGRP
  maximal cAMP response: appreciably less
[3]; compared to CGRP
  cAMP potency compared with CGRP, wild type: considerably less; also recorded: significantly less
[4]; L24A, L34A, L24A,L34A vs wild type CLR
  cAMP potency at leucine mutants compared with wild type: no different; also recorded: no significant potency differences

## CGRP(8–37)
CGRP receptor; N-terminal truncated peptide
  CGRP receptor affinity and activity: effective CGRP receptor antagonist having a high affinity for the receptor but devoid of any biological activity in itself
[4]; 1μM CGRP(8–37) preincubated 30 min before 10μM CGRP(1–36), wild type and leucine CLR mutants
  antagonism of cAMP response to CGRP(1–36): abolished the activity of 10μM CGRP(1–36); also recorded: blocked to basal levels

## [125I-Tyr]CGRP(8–37) (peptide)
[5]
  Kd: 9 nM
[6]
  Kd: 9 nM
[7]
  Kd: 9 nM
[8]
  Kd: 0.9 nM

## des-F37-CGRP: CGRP with deletion of the C-terminal phenylalanine at position 37 (ACDTATCVTHRLAGLLSRSGGVVKNNFVPTNVGSKA-NH2; disulfide 2-7 (inferred); ends not checked; UniProt P06881 83-119, looked up, variant F37*)
CGRP receptor; not due to disruption of ligand structure
  affinity for native receptor compared with endogenous neuropeptide: affinity loss

## ACDTATCVTHRLAGLLSRS (modifications not checked) [CGRP(1–19)]
[9]
  EC50 of cAMP generation in transiently transfected HEK293T-RAMP1 cells: 2400 nM
[10]
  EC50 of cAMP generation in transiently transfected HEK293T-RAMP1 cells: 2200 nM
[11]
  EC50 of cAMP generation in transiently transfected HEK293T-RAMP1 cells: 2100 nM
[12]
  EC50 of cAMP generation in transiently transfected HEK293T-RAMP1 cells: 1600 nM
[13]
  Ki: > 10000 nM
[14]
  Ki: > 10000 nM
[15]
  Ki: > 10000 nM
[16]
  Ki: > 10000 nM
